This note sets out measurements from PMC2814163 (Biochemistry, 2010).

For the assay, the target named is soluble form of the cation-independent mannose 6-phosphate receptor isolated from fetal bovine serum (bovine, UniProt P08169 45-2313). Nature of the assay: SPR.

B1: human β-glucuronidase (enzyme, UniProt P08236 23-651, looked up)
chain: LQGGMLYPQESPSRECKELDGLWSFRADFSDNRRRGFEEQWYRRPLWESGPTVDMPVPSSFNDISQDWRLRHFVGWVWYEREVILPERWTQDLRTRVVLRIGSAHSYAIVWVNGVDTLEHEGGYLPFEADISNLVQVGPLPSRLRITIAINNTLTPTTLPPGTIQYLTDTSKYPKGYFVQNTYFDFFNYAGLQRSVLLYTTPTTYIDDITVTTSVEQDSGLVNYQISVKGSNLFKLEVRLLDAENKVVANGTGTQGQLKVPGVSLWWPYLMHERPAYLYSLEVQLTAQTSLGPVSDFYTLPVGIRTVAVTKSQFLINGKPFYFHGVNKHEDADIRGKGFDWPLLVKDFNLLRWLGANAFRTSHYPYAEEVMQMCDRYGIVVIDECPGVGLALPQFFNNVSLHHHMQVMEEVVRRDKNHPAVVMWSVANEPASHLESAGYYLKMVIAHTKSLDPSRPVTFVSNSNYAADKGAPYVDVICLNSYYSWYHDYGHLELIQLQLATQFENWYKKYQKPIIQSEYGAETIAGFHQDPPLMFTEEYQKSLLEQYHLGLDQKRRKYVVGELIWNFADFMTEQSPTRVLGNKKGIFTRQRQPKSAAFLLRERYWKIANETRYPHSVAKSQCLENSLFT
modifications: mannose 6-phosphate on its glycans (Man-6-P-containing lysosomal enzyme; nonphosphorylated enzyme removed)
The molecule B1 had a Kd of 22 ± 3 nM.

As usually defined, the Kd is the free concentration of one partner at which half of the binding sites on the other are occupied at equilibrium, for simple one-to-one binding.
